The results in this text go back to IntAct's records for PubMed 20953186.

B1: E3 ubiquitin ligase TRAF3IP2 (Homo sapiens), O43734-2 (parent)
chain: MNRSIPVEVDESEPYPSQLLKPIPEYSPEEESEPPAPNIRNMAPNSLSAPTMLHNSSGDFSQAHSTLKLANHQRPVSRQVTCLRTQVLEDSEDSFCRRHPGLGKAFPSGCSAVSEPASESVVGALPAEHQFSFMEKRNQWLVSQLSAASPDTGHDSDKSDQSLPNASADSLGGSQEMVQRPQPHRNRAGLDLPTIDTGYDSQPQDVLGIRQLERPLPLTSVCYPQDLPRPLRSREFPQFEPQRYPACAQMLPPNLSPHAPWNYHYHCPGSPDHQVPYGHDYPRAAYQQVIQPALPGQPLPGASVRGLHPVQKVILNYPSPWDHEERPAQRDCSFPGLPRHQDQPHHQPPNRAGAPGESLECPAELRPQVPQPPSPAAVPRPPSNPPARGTLKTSNLPEELRKVFITYSMDTAMEVVKFVNFLLVNGFQTAIDIFEDRIRGIDIIKWMERYLRDKTVMIIVAISPKYKQDVEGAESQLDEDEHGLHTKYIHRMMQIEFIKQGSMNFRFIPVLFPNAKKEHVPTWLQNTHVYSWPKNKKNILLRLLREEEYVAPPRGPLPTLQVVPL
partner: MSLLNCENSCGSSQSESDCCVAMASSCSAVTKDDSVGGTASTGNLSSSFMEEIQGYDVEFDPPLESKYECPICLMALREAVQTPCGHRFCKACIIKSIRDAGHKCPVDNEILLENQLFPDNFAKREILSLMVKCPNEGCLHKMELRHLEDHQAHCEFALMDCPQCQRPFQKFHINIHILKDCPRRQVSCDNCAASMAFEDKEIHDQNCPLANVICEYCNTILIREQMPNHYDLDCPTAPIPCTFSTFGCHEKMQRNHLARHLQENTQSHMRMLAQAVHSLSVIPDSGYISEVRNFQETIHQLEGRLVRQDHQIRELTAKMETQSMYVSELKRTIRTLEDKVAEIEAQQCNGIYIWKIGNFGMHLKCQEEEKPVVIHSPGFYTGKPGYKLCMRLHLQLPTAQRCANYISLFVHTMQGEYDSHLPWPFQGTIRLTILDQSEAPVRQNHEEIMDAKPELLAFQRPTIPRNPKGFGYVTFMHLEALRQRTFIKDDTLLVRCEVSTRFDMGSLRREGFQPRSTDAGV

In this test the parent is B1. To be noted: with traf6_human TRAF6, Q9Y4K3.
MNRSIPVEVNESEPYPSQLLKPIPEYSPEEESEPPAPNIRNMAPNSLSAPTMLHNSSGDFSQAHSTLKLANHQRPVSRQVTCLRTQVLEDSEDSFCRRHPGLGKAFPSGCSAVSEPASESVVGALPAEHQFSFMEKRNQWLVSQLSAASPDTGHDSDKSDQSLPNASADSLGGSQEMVQRPQPHRNRAGLDLPTIDTGYDSQPQDVLGIRQLERPLPLTSVCYPQDLPRPLRSREFPQFEPQRYPACAQMLPPNLSPHAPWNYHYHCPGSPDHQVPYGHDYPRAAYQQVIQPALPGQPLPGASVRGLHPVQKVILNYPSPWDHEERPAQRDCSFPGLPRHQDQPHHQPPNRAGAPGESLECPAELRPQVPQPPSPAAVPRPPSNPPARGTLKTSNLPEELRKVFITYSMDTAMEVVKFVNFLLVNGFQTAIDIFEDRIRGIDIIKWMERYLRDKTVMIIVAISPKYKQDVEGAESQLDEDEHGLHTKYIHRMMQIEFIKQGSMNFRFIPVLFPNAKKEHVPTWLQNTHVYSWPKNKKNILLRLLREEEYVAPPRGPLPTLQVVPL [D10N]: the “effect of a mutation on the interaction” value was “disrupting interaction”.
